Measured values from US6958240, “Inhibition of major groove DNA binding proteins by modified polyamides” (California Instiute of Technology).
Positions count from the first letter of the chain named.

B1: ARE-1 (dsDNA)
DNA 1: CCGGATCCATGGTTGCTGACTAATTGTTATCCTCTAGAGTCGACC
DNA 2: GGTCGACTCTAGAGGATAACAATTAGTCAGCAACCATGGATCCGG
B2: ARE-2 (dsDNA)
DNA 1: B1 DNA 1 with T27G, A29C
DNA 2: B1 DNA 2 with T17G, A19C

How the values were obtained:
[1] = target: T1, GCN4 (222-281), bZIP DNA-binding domain (UniProt P03069 P03069:222-281); assay: EMSA; bound near saturation at 200 nM GCN4; 10 mM bisTris pH 7.0, 100 mM NaCl, 1 mM DTT, 1 mM EDTA, 50 ug/mL poly(dI-dC), 22 C; inhibited by polyamides 3, 5 and 13, not by 1 or 4; conditions: protein: synthetic; tags: none; prepared by solid phase peptide synthesis; chain copies: 2 (inferred); label: 5'-32P
Method: (§1) For gel mobility shifts, polyamide was incubated with radiolabeled synthetic DNA duplex (10 kcpm) in 40 µL reaction volumes of bisTris (10 mM, pH 7.0), NaCl (100 mM), DTT (1 mM), EDTA (1 mM), and poly(dI-dC)·poly(dI-dC) (50 µg/mL) for 16 hours at 22° C. (20 mM MOPS, pH 7.0, 140 mM KCl, 10 mM NaCl, 1 mM MgCl_2, 1 mM spermine was used to model ionic conditions in vivo). GCN4 (222–281) was added and equilibrated for 30 minutes. Loading buffer (15% Ficoll, 0.025% bromophenol blue) (10 µL) was added and 10 µL was immediately loaded onto a running 8% (29:1, acrylamide:bis-acrylamide) polyacrylamide gel (0.5×TBE, 280 V, 0.8 mm, 13 cm). Sufficient separation of the free DNA and the DNA·GCN4 (222–281) complexes was achieved within 45 minutes. Gels were dried and exposed to a storage phosphor screen (Molecular Dynamics) (Johnston, et al. (1990) *Electrophoresis* 11, 355).
(§2) ImPyPyPy-γ-PyPyPyPy-β-polyamides (1 and 3) target the six base pair 5'-TGTTAT-3' site adjacent to the GCN4 binding site of ARE-1 (FIG. 6). ImImPyPy-γ-ImPyPyPy-β-polyamides (2 and 4) were designed to bind 5'-TGGTCT-3' adjacent to the GCN4 site in ARE-2 (FIG. 6).
(§3) The ability of polyamides to inhibit GCN4 (222–281) binding was evaluated using the gel mobility shift assay. […]

[2] = target: T1, GCN4 (222-281), bZIP DNA-binding domain; assay: EMSA; bound near saturation at 200 nM GCN4; same buffer, 22 C; inhibited by matched polyamides 4 and 6, not by 2 or 3; conditions: protein: synthetic; tags: none; prepared by solid phase peptide synthesis; chain copies: 2 (inferred); label: 5'-32P
Method: as §1, §2, §3

T1 sequence (P03069 222-281, one chain of several): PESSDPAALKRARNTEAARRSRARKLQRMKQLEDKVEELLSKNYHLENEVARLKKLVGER

Binder	binding result [1]	binding result [2]
B1	binds	
B2		binds
